Measurements: patent US20260226143A1

Molecular target: soluble Aβ oligomers (human)
Assay: cell-based or functional assay

Substance: human IgG isotype control antibody
- Mean (Aβ spots per neuron), Isotype Control 1:50 (Aβ spots per neuron): 58.7
